Reference: the supplement of paper PMC12764529

Assay: folding stability dG unfold (combined trypsin and chymotrypsin); higher = more stable
Experimental: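 Folding stability of de novo designed mini-proteins (<80 aa, no Cys; designed by TrROS, TrMRF, ProteinMPNN and the joint model) was measured by cDNA display proteolysis with trypsin and chymotrypsin. Each protease was used at 11 concentrations in a threefold dilution series plus a no-protease condition. K50 was inferred by Bayesian fitting of sequencing counts, and dG unfold was derived against a sequence-predicted unfolded-state K50 (Tsuboyama et al. method). Sequences shown include variable-length N-terminal GS-type padding (SAGGSAGG...) inside a display construct carrying a PA tag. Rows were kept only if the AF2 dimer inter-PAE was >15, to exclude likely homo-oligomers.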

Sequence | folding stability dG unfold [kcal/mol]
SAGGSAGGSAGEPGFTVRVLKKDLPTGEFSEVEIEVPASVPLEEVIEALDPDQVVAVEVESAGGSAGGSAGG [r11_386_TrMRF] | < -1
SAGGSAGGSAGEPIPFRIKVELPGNGREQEIDFPIKTPSEANEIANQLPPGFKRVKIEWYSAGGSAGGSAGG [r11_25_TrROS] | < -1
SAGGSAGGSAGERYYMVEIQPKNGRRIKIMIPDDPEKAVKKARELFPDYEVEVEPMKKPPSAGGSAGGSAGG [r11_850_TrROS] | < -1
SAGGSAGGSAGGADVPVAELEARGLGREALIAELGEDVTVTTEEHAPGAPVYRLTPLASSAGGSAGGSAGGS [r10_855_JUSTAS] | < -1
SAGGSAGGSAGGALLLFEEGRRLRYETPEEAEELAAAVRAESGRPDLRISLRELSPEELPSAGGSAGGSAGG [r7_839_JUSTAS] | < -1
SAGGSAGGSAGGDLEIHIPPGMDPAQADNFAKMFGLKNIKIEPVPPVKPRVYTKNGEPDSAGGSAGGSAGGS [r10_1083_TrROS] | < -1
SAGGSAGGSAGGDNIMIKIRNPGKPRTFMIKDPEQLKNMSLKELADELVDKHGWPVEIYPSAGGSAGGSAGG [r7_259_TrROS] | < -1
SAGGSAGGSAGGFKIEGNPMPDDDGPYWHIEVTHWRYNGGGPRPRKRTIMIKDPEDAKEFSAGGSAGGSAGG [r7_896_TrROS] | < -1
SAGGSAGGSAGGFVGTLKDYPKILKAAKEVGLKVGKIDPKNNKIYVDPSNPEKLKKAIESSAGGSAGGSAGG [r7_285_TrMRF] | < -1
SAGGSAGGSAGGGGKKKREISIMFEGGTPSDFKREAREIANSPENKDNVDEVEITMMPGSAGGSAGGSAGGS [r10_351_TrROS] | < -1
SAGGSAGGSAGGGLDDVPEEELRKILEEHGLPPEEVPPDTEVTLELPEGKPIKVRMTGRSAGGSAGGSAGGS [r10_623_JUSTAS] | < -1
SAGGSAGGSAGGGYRLVTTTERRTLVYREYDPTTDRFRPVKPVPTTIETTLLAPEDELLSAGGSAGGSAGGS [r10_610_JUSTAS] | < -1
SAGGSAGGSAGGKITEVDTSNNMVEITLKHPGGKRERPIDPGKTMAQILDELKENPDLVISAGGSAGGSAGG [r7_373_TrROS] | < -1
SAGGSAGGSAGGKKIKIVKVEPGKVKFSLGKKGKNIPGFEKEVKVEVYEIETDLEPLLNSAGGSAGGSAGGS [r10_654_TrMRF] | < -1
SAGGSAGGSAGGKKQTLVIRSDNKPIPIEYDDDNIKISNPNGKKQEIPPEDLPPDGIEPVSAGGSAGGSAGG [r7_748_TrROS] | < -1
SAGGSAGGSAGGKLRIFYPNPWQARWRAKTIQNEMMDNGYKIPPNVEIEIHPMRPDPGDWSAGGSAGGSAGG [r7_965_TrROS] | < -1
SAGGSAGGSAGGKRHRIDNIEPFNNDGEKLYRIRMPGGKEQRFPVGEEFTPNGAEIEPLPSAGGSAGGSAGG [r7_931_TrROS] | < -1
SAGGSAGGSAGGMKVIPIYSPGKGSKEEIIELVKKKNPNVKKVEVTYNPEEDVATVTIESAGGSAGGSAGGS [r10_225_JUSTAS] | < -1
SAGGSAGGSAGGMPVSFEELKKLPPNTVLIFSDGTVVTAPEEEVKKPFGKEKIVYVEEKPSAGGSAGGSAGG [r7_643_JUSTAS] | < -1
SAGGSAGGSAGGMTIRVVPVEITPDSSGVLRRDIEEVAAANPDAEVLETTPTSVLVRYKRSAGGSAGGSAGG [r11_771_JUSTAS] | < -1
SAGGSAGGSAGGPELGEIEPGPDGYLYVNLKVELPVELPGPDGKGTGPVEGTVRLKVGLSAGGSAGGSAGGS [r10_92_TrMRF] | < -1
SAGGSAGGSAGGPEWKEIDIPFDTPEDAIDEAEDKLPPDDKIDVHNPDDGQPITFTVPRNSAGGSAGGSAGG [r7_877_TrROS] | < -1
SAGGSAGGSAGGPIKVETEPYPDGYHRVEIMLPGNGQKKEIHFPNGQTPEQAKDWIKEWSAGGSAGGSAGGS [r10_825_TrROS] | < -1
SAGGSAGGSAGGPKEIPIKIKIYPPNGRKRERPVPLKSEEQALDQLQEAMPPGWFIEIWSAGGSAGGSAGGS [r10_145_TrROS] | < -1
SAGGSAGGSAGGPPIPIRIKLEHPDNGKKHTHEFPPGMSLKEVKNYMEKHPGYKIKDIEISAGGSAGGSAGG [r7_624_TrROS] | < -1
SAGGSAGGSAGGPPPSLPYELDKKVIEKLVKYPEDKLKPVEIKEIETSLFNPLTGTWLDSAGGSAGGSAGGS [r10_248_JUSTAS] | < -1
SAGGSAGGSAGGPPVPYKIKSPNGRPFPVQINPDSGQIEIEFPGETRKIPLGMNWEIEPVSAGGSAGGSAGG [r7_434_TrROS] | < -1

Sequence | folding stability dG unfold [kcal/mol]
SAGGSAGGSAGGPRVTGTPVPGDDEPLLVVEREYTVEVGGGPRPVRVRFVFDHPDEALRSSAGGSAGGSAGG [r7_896_TrMRF] | < -1
SAGGSAGGSAGGQIRDPDGRKWIRVKGASPNKIKDELSELNPNVEIITNPDPNEMWIRIPSAGGSAGGSAGG [r7_370_TrROS] | < -1
SAGGSAGGSAGGRVKKDVTVRYRLTVRNPVTGKTTERTLTVHVPVLVDEEAELPPLSEVSAGGSAGGSAGGS [r10_1026_TrMRF] | < -1
SAGGSAGGSAGGSAMVYRTEVLVESEELPPPGVGGRLRREGEKVIVRKAPPEALEELGRSAGGSAGGSAGGS [r4_274_JUSTAS] | < -1
SAGGSAGGSAGGSELVGPEKAKEIIKEAYEKGYEEIPILLHLPNGETEEKIIKVPKNKISAGGSAGGSAGGS [r4_342_TrMRF] | < -1
SAGGSAGGSAGGSENEPIPIQVKIWDPKDGEPVRTIPFNIWPGRSINELANKFPGVEIVSAGGSAGGSAGGS [r4_187_TrROS] | < -1
SAGGSAGGSAGGSFVPMSQVTKVTPVGDKLVIETPGNPIVFSPEEIPIPEDLPLNFVPRSAGGSAGGSAGGS [r10_665_JUSTAS] | < -1
SAGGSAGGSAGGSGEDDVEVEVVPLPGDLTRTIERFPGLVRTFVYAPDSEVAEEEFELPSAGGSAGGSAGGS [r4_322_JUSTAS] | < -1
SAGGSAGGSAGGSGMMVPTTVTITVPAPDGTPVRTVTITTTSPTATLEEIKARVAPFLASAGGSAGGSAGGS [r4_375_JUSTAS] | < -1
SAGGSAGGSAGGSGMRLVEEVKYSTRKQPTGVPVYEVENLKVKEVPVKITVDSNGVLTLESAGGSAGGSAGG [r11_381_JUSTAS] | < -1
SAGGSAGGSAGGSGSSVTTVTEEPGRRVVTRFVPETGEEEVLSTEEVPAPPLPLSPALLSAGGSAGGSAGGS [r4_21_JUSTAS] | < -1
SAGGSAGGSAGGSGVKTRAGSFPDRDYTITEDPVVPGIYTVKFPPEVTVTLPKSEIPPLSAGGSAGGSAGGS [r10_556_JUSTAS] | < -1
SAGGSAGGSAGGSHTFEFPGRKITIHRNPNGMYPIEIETNGKPREIMIPPNDLDKLLKASAGGSAGGSAGGS [r4_346_TrROS] | < -1
SAGGSAGGSAGGSKEITFPAREIAEKLGIPPGRPITPEFLNKIKHVETDENGWVTLKLDSAGGSAGGSAGGS [r4_369_TrROS] | < -1
SAGGSAGGSAGGSKKKFKVKVIEKKPTTFPDGGVLVDYKVEIPETGALFDLKLTYTGEASAGGSAGGSAGGS [r4_94_TrMRF] | < -1
SAGGSAGGSAGGSMKILYKLKNDNKVITSLEELKKEIESGKKVTIEEVKEIEESPDVPLSAGGSAGGSAGGS [r4_479_JUSTAS] | < -1
SAGGSAGGSAGGSMKIYVTSPEEAKKEKEKILEELKKTNIPPKVKVEVKVIPKSEIPLESAGGSAGGSAGGS [r4_472_JUSTAS] | < -1
SAGGSAGGSAGGSMLLTSQLLREFPNGEVRLETEVVELELPDEPLPLPKPKPRRDPEGRLVSAGGSAGGSAG [r3_252_JUSTAS] | < -1
SAGGSAGGSAGGSMTVTVEPVPNSDKLRVTTTTTFLNPSNGQVTSTSTSTTVVPPGVAPSAGGSAGGSAGGS [r10_86_JUSTAS] | < -1
SAGGSAGGSAGGSMVVPASEVEEYVERRKRETGDRFEVTPIPEEGVTPVRLEPADPALESAGGSAGGSAGGS [r4_419_JUSTAS] | < -1
SAGGSAGGSAGGSNIPTDETVEKVVKIGPKPVTVTITAEPGKLLAKFPKEKKTVPISSLLSAGGSAGGSAGG [r7_37_JUSTAS] | < -1
SAGGSAGGSAGGSPPSLDYSVRTITTTVEETTFFPDNGTVRSRPVHVTTVVFEPLDSVESAGGSAGGSAGGS [r10_133_JUSTAS] | < -1
SAGGSAGGSAGGSPQIKVEYERNGGYYPVKISIPNGRKVEIPNMPVENAEKMAKEFLKKSAGGSAGGSAGGS [r4_383_TrROS] | < -1
SAGGSAGGSAGGSSAQIPFPDDGAWIMIDWDPEGRPKVKVHNPDNGEEIEFPPGAPIKISAGGSAGGSAGGS [r4_158_TrROS] | < -1
SAGGSAGGSAGGSSVEEEFLAYAKANPEPAPFEFEGPDEKVLLYFPPGGEIDPVSIELKSAGGSAGGSAGGS [r4_438_JUSTAS] | < -1
SAGGSAGGSAGGVVELPELPPGDDAEVTEVRTPSPGPVELVLRPPHSDETTTRTLSPERLSAGGSAGGSAGG [r7_342_JUSTAS] | < -1
